For experiment [1], the target named is insulin-like growth factor 1 (IGF-1) (human) (UniProt P05019). Description: SPR. In general terms: SPR reads the build-up and loss of mass on a sensor chip optically.
The target in experiment [2] is insulin-like growth factor 2 (IGF-2) (human) (UniProt P01344). Nature of the experiment: SPR.
In experiment [3] the target is linker domain of human IGFBP2 (L-hIGFBP2; residues A97-C191) (human). Description: NMR titration.

Consider two substances from publication PMC9357107.

The term Kd denotes the equilibrium constant for the complex coming apart. What is called stoichiometry N is a count of units in the complex or per binding partner.

UniProt P01344, sequence (P01344 25-91): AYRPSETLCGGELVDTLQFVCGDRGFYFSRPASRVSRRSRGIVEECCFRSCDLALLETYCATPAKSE

“linker domain of human IGFBP2 (L-hIGFBP2; residues A97-C191) (domain or fragment)”: the Kd in experiment [1] came out at 4.1 µM; in experiment [2], 3.7 µM.

As for “insulin-like growth factor 1 (IGF-1) (from UniProt P05019 49-118) (ligand)”, the stoichiometry N in experiment [3] is 1.
